What is called Kd is the constant that tells how readily two partners part at equilibrium.

Ends that are not written are not given here.

Kd data for 4 molecules are collected here from paper PMC12097012, “Direct Quantification of Protein–Protein Interactions in Living Bacterial Cells” (Advanced Science, 2025).

In one experiment the target is T1, ^CDD_(ElaJ).
T1 chain: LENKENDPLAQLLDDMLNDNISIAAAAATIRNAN
Put plainly: FRET or BRET; KD-FRET: sensitized-emission (three-channel) FRET microscopy of single living E. coli BW25993 cells (UvrA/UvrB: uvrA uvrB double deletion strain), donor eGFPd fusion from pFF838, acceptor mRFP fusion from pBBR6k, M9 medium, 37 °C; corrections to step 6; FRET efficiency against binned acceptor concentration fitted to a quadratic binding equation. Conditions: partners not purified.

Experiment [1] concerns the target T2, ^CDD_(MlnD) labeled with eGFPd.
T2 chain: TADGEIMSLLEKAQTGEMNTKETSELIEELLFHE
Put plainly: FRET or BRET; in vitro FRET with purified fusion proteins in PBS, plate reader, 37 °C; donor protein fixed at 1 × 10^-6 M, acceptor protein 0 to 20 × 10^-6 M. Particulars: both partners purified. (In general: BRET reads energy transfer from a luciferase to a nearby fluorophore.)

Experiment [2] shares this target. Put plainly: FRET or BRET; KD-FRET: sensitized-emission (three-channel) FRET microscopy of single living E. coli BW25993 cells (UvrA/UvrB: uvrA uvrB double deletion strain), donor eGFPd fusion from pFF838, acceptor mRFP fusion from pBBR6k, M9 medium, 37 °C; corrections to step 6; FRET efficiency against binned acceptor concentration fitted to a quadratic binding equation. Particulars: partners not purified.

The target in the next experiment is T3, UvrA-eGFPd (E. coli, UniProt P0A698 1-940).
T3 construct: UvrA, nucleotide excision repair protein of E. coli; source: E. coli BW25993 with double deletion of uvrA and uvrB (SY006), expressed from the donor vector, in living cells; not shown: eGFPd, C-terminal, kept
T3 sequence (looked up): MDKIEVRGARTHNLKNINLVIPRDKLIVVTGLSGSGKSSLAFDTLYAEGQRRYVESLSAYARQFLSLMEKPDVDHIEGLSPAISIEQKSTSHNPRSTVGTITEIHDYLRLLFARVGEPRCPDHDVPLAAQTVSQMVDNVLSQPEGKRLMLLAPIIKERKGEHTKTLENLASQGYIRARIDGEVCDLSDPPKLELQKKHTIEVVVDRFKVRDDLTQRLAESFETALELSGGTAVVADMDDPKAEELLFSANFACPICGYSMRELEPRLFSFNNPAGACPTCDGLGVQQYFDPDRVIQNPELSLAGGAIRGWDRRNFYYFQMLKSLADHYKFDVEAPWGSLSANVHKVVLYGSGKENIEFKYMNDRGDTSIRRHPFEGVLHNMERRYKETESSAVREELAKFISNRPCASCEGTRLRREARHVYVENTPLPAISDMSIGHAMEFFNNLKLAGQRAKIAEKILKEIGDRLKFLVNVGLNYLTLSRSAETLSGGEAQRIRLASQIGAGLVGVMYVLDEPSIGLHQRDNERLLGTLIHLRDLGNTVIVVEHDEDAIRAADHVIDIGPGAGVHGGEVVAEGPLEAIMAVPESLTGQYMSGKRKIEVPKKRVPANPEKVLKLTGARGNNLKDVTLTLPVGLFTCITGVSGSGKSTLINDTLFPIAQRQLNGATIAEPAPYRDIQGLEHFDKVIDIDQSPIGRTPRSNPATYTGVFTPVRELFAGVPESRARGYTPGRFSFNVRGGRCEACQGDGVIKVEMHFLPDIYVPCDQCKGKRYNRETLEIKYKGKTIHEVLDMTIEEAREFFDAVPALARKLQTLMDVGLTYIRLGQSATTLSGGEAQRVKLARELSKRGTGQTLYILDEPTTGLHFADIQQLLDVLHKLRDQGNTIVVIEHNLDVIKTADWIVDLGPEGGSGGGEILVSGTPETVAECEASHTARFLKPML
Described as above. Particulars: partners not purified.

Experiment [3] deals with T4, eGFPd-^CDD_(MlnB).
T4 chain: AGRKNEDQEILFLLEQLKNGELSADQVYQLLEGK
Put plainly: FRET or BRET; in vitro FRET with purified fusion proteins in PBS, plate reader, 37 °C; donor protein fixed at 1 × 10^-6 M, acceptor protein 0 to 20 × 10^-6 M. Particulars: both partners purified.

The target in experiment [4] is T4, eGFPd-^CDD_(MlnB). Description: ITC; cell: 80 × 10^-6 M eGFPd-CDD_MlnB; syringe: 1.6 × 10^-3 M NDD_MlnC-mRFP, 20 injections of 2 µL; 20 mM Tris-HCl pH 7.9, 250 mM NaCl, 1 mM EDTA, 10% glycerol, 1 mM TCEP; 37 °C; single binding site model. Conditions: both partners purified.
Experiment [5] concerns the target T4, eGFPd-^CDD_(MlnB). Description: FRET or BRET; KD-FRET: sensitized-emission (three-channel) FRET microscopy of single living E. coli BW25993 cells (UvrA/UvrB: uvrA uvrB double deletion strain), donor eGFPd fusion from pFF838, acceptor mRFP fusion from pBBR6k, M9 medium, 37 °C; corrections to step 6; FRET efficiency against binned acceptor concentration fitted to a quadratic binding equation. Particulars: partners not purified.

B1: ^NDD_(ElaK) (domain or fragment)
chain: MKDYIEHILEEIKHNRLSKQEGLEQIRQFRSKGNV
modifications: not fully specified
Consider B1, for which the Kd with ^CDD_(ElaJ) worked out at 1.18 µM.

B2: ^NDD_(MlnE) labeled with mRFP (domain or fragment)
chain: MNEKTMQIEQIVKKVKECSLTPEEGLELIKSLGKT
modifications: also: labeled with mRFP
For the molecule B2, the Kd stood at 1.5 µM in experiment [1] and 0.25 µM in experiment [2].

B3: UvrB-mRFP (natural protein, E. coli, UniProt P0A8F8 1-673, looked up)
chain: MSKPFKLNSAFKPSGDQPEAIRRLEEGLEDGLAHQTLLGVTGSGKTFTIANVIADLQRPTMVLAPNKTLAAQLYGEMKEFFPENAVEYFVSYYDYYQPEAYVPSSDTFIEKDASVNEHIEQMRLSATKAMLERRDVVVVASVSAIYGLGDPDLYLKMMLHLTVGMIIDQRAILRRLAELQYARNDQAFQRGTFRVRGEVIDIFPAESDDIALRVELFDEEVERLSLFDPLTGQIVSTIPRFTIYPKTHYVTPRERIVQAMEEIKEELAARRKVLLENNKLLEEQRLTQRTQFDLEMMNELGYCSGIENYSRFLSGRGPGEPPPTLFDYLPADGLLVVDESHVTIPQIGGMYRGDRARKETLVEYGFRLPSALDNRPLKFEEFEALAPQTIYVSATPGNYELEKSGGDVVDQVVRPTGLLDPIIEVRPVATQVDDLLSEIRQRAAINERVLVTTLTKRMAEDLTEYLEEHGERVRYLHSDIDTVERMEIIRDLRLGEFDVLVGINLLREGLDMPEVSLVAILDADKEGFLRSERSLIQTIGRAARNVNGKAILYGDKITPSMAKAIGETERRREKQQKYNEEHGITPQGLNKKVVDILALGQNIAKTKAKGRGKSRPIVEPDNVPMDMSPKALQQKIHELEGLMMQHAQNLEFEEAAQIRDQLHQLRELFIAAS
notes: UvrB, nucleotide excision repair protein of E. coli; source: E. coli BW25993 with double deletion of uvrA and uvrB (SY006), expressed from the acceptor vector, in living cells; not shown: mRFP, C-terminal, kept
As to B3, the Kd with UvrA-eGFPd was found to be 0.17 µM.

B4: ^NDD_(MlnC)-mRFP (domain or fragment)
chain: MQIKQILSLIEEQQMSPDAGLELIRTYRKEQMEKK
modifications: also: fused to mRFP
As to B4, the dissociation constant Kd is 5.66 µM with eGFPd-^CDD_(MlnB) [3], 6.85 µM with eGFPd-^CDD_(MlnB) [4] and 2.29 µM with eGFPd-^CDD_(MlnB) [5].
